# Reference: the supplement of paper PMC10567573
# B1: LOXL2 (parent)
# chain: YVEVKEGKTWKQICDKHWTAKNSR
# Variants of: B1
# Experiment: protein stability index of a GFP-peptide fusion (GPS, HEK-293T) (PSI 1-6); higher = more stable
# Settings: c terminus: a fixed tail appended
# 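Also: lentivirally expressed fusions sorted by FACS into six bins by GFP to DsRed ratio, PSI derived from sequencing read proportions per bin multiplied by bin number.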
row,Variant,protein stability index
1,YVEVKEGCTWKQICDKHWTAKNSR [K8C],2.17
2,YVEVKEGSTWKQICDKHWTAKNSR [K8S],2.44
3,YVEVKEGETWKQICDKHWTAKNSR [K8E],2.46
4,YVEVKEGFTWKQICDKHWTAKNSR [K8F],2.42
5,YVEVKEGVTWKQICDKHWTAKNSR [K8V],2.07
6,YVEVKEGRTWKQICDKHWTAKNSR [K8R],2.24
7,YVEVKEGDTWKQICDKHWTAKNSR [K8D],2.41
8,YVEVKEGATWKQICDKHWTAKNSR [K8A],2.49
9,YVEVKEGQTWKQICDKHWTAKNSR [K8Q],3.07
10,YVEVKEGGTWKQICDKHWTAKNSR [K8G],1.85
11,YVEVKEGPTWKQICDKHWTAKNSR [K8P],2.63
12,YVEVKEGNTWKQICDKHWTAKNSR [K8N],1.68
13,YVEVKEGMTWKQICDKHWTAKNSR [K8M],1.91
14,YVEVKEGYTWKQICDKHWTAKNSR [K8Y],2.21
15,YVEVKEGHTWKQICDKHWTAKNSR [K8H],1.44
16,YVEVKEGLTWKQICDKHWTAKNSR [K8L],2.01
17,YVEVKEGTTWKQICDKHWTAKNSR [K8T],1.55
18,YVEVKEGITWKQICDKHWTAKNSR [K8I],2.67
19,TVEVKEGKTWKQICDKHWTAKNSR [Y1T],3.21
20,QVEVKEGKTWKQICDKHWTAKNSR [Y1Q],3.58
21,WVEVKEGKTWKQICDKHWTAKNSR [Y1W],2.29
22,SVEVKEGKTWKQICDKHWTAKNSR [Y1S],3.71
23,VVEVKEGKTWKQICDKHWTAKNSR [Y1V],3.4
24,RVEVKEGKTWKQICDKHWTAKNSR [Y1R],3.12

row,Variant,protein stability index
1,YVEPKEGKTWKQICDKHWTAKNSR [V4P],1.26
2,YVEAKEGKTWKQICDKHWTAKNSR [V4A],2.73
3,YVERKEGKTWKQICDKHWTAKNSR [V4R],2.1
4,YVEWKEGKTWKQICDKHWTAKNSR [V4W],1.39
5,YVEHKEGKTWKQICDKHWTAKNSR [V4H],1.74
6,YVELKEGKTWKQICDKHWTAKNSR [V4L],3.89
7,YVEMKEGKTWKQICDKHWTAKNSR [V4M],1.82
8,YVEKKEGKTWKQICDKHWTAKNSR [V4K],2.03
9,YVEYKEGKTWKQICDKHWTAKNSR [V4Y],1.14
10,YVEEKEGKTWKQICDKHWTAKNSR [V4E],1.42
11,YVEQKEGKTWKQICDKHWTAKNSR [V4Q],1.51
12,YVEGKEGKTWKQICDKHWTAKNSR [V4G],2.86
13,YVESKEGKTWKQICDKHWTAKNSR [V4S],2.73
14,YVECKEGKTWKQICDKHWTAKNSR [V4C],2.22
15,YVEFKEGKTWKQICDKHWTAKNSR [V4F],2.36
16,YVEIKEGKTWKQICDKHWTAKNSR [V4I],2.55
17,YVIVKEGKTWKQICDKHWTAKNSR [E3I],2.53
18,YVFVKEGKTWKQICDKHWTAKNSR [E3F],2.52
19,YVLVKEGKTWKQICDKHWTAKNSR [E3L],2.58
20,YVYVKEGKTWKQICDKHWTAKNSR [E3Y],2.73
21,YVAVKEGKTWKQICDKHWTAKNSR [E3A],4.18
22,YVNVKEGKTWKQICDKHWTAKNSR [E3N],2.29
23,YVKVKEGKTWKQICDKHWTAKNSR [E3K],2.68
24,YVTVKEGKTWKQICDKHWTAKNSR [E3T],3.63

row,Variant,protein stability index
1,YVMVKEGKTWKQICDKHWTAKNSR [E3M],1.06
2,YVVVKEGKTWKQICDKHWTAKNSR [E3V],1.56
3,YVSVKEGKTWKQICDKHWTAKNSR [E3S],3.96
4,YVQVKEGKTWKQICDKHWTAKNSR [E3Q],1.95
5,YVCVKEGKTWKQICDKHWTAKNSR [E3C],1.44
6,YVWVKEGKTWKQICDKHWTAKNSR [E3W],2.6
7,YVGVKEGKTWKQICDKHWTAKNSR [E3G],3.63
8,YVDVKEGKTWKQICDKHWTAKNSR [E3D],2.63
9,YVHVKEGKTWKQICDKHWTAKNSR [E3H],2.92
10,YVRVKEGKTWKQICDKHWTAKNSR [E3R],1.88
11,YVEVKEGKTWLQICDKHWTAKNSR [K11L],2.53
12,YVEVKEGKTWHQICDKHWTAKNSR [K11H],2.45
13,YVEVKEGKTWYQICDKHWTAKNSR [K11Y],4.35
14,YVEVKEGKTWRQICDKHWTAKNSR [K11R],2.52
15,YVEVKEGKTWVQICDKHWTAKNSR [K11V],2.1
16,YVEVKEGKTWDQICDKHWTAKNSR [K11D],1.18
17,YVEVKEGKTWGQICDKHWTAKNSR [K11G],2.77
18,YVEVKEGKTWMQICDKHWTAKNSR [K11M],2.1
19,YVEVKEGKTWFQICDKHWTAKNSR [K11F],3.38
20,YVEVKEGKTWPQICDKHWTAKNSR [K11P],1.99
21,YVEVKEGKTWQQICDKHWTAKNSR [K11Q],1.83
22,YVEVKEGKTWTQICDKHWTAKNSR [K11T],2.93
23,YVEVKEGKTWIQICDKHWTAKNSR [K11I],2.23
24,YVEVKEGKTWCQICDKHWTAKNSR [K11C],2.28

row,Variant,protein stability index
1,YVEVKEGKTWSQICDKHWTAKNSR [K11S],3.37
2,YVEVKEGKTWEQICDKHWTAKNSR [K11E],2.28
3,YVEVKEGKTWWQICDKHWTAKNSR [K11W],3.53
4,YVEVKEGKTHKQICDKHWTAKNSR [W10H],2.44
5,YVEVKEGKTMKQICDKHWTAKNSR [W10M],2.37
6,YVEVKEGKTDKQICDKHWTAKNSR [W10D],3.03
7,YVEVKEGKTTKQICDKHWTAKNSR [W10T],2.91
8,YVEVKEGKTVKQICDKHWTAKNSR [W10V],2.78
9,YVEVKEGKTGKQICDKHWTAKNSR [W10G],2.23
10,YVEVKEGKTIKQICDKHWTAKNSR [W10I],2.3
11,YVEVKEGKTQKQICDKHWTAKNSR [W10Q],2.7
12,YVEVKEGKTNKQICDKHWTAKNSR [W10N],2.5
13,YVEVKEGKTLKQICDKHWTAKNSR [W10L],2.46
14,YVEVKEGKTKKQICDKHWTAKNSR [W10K],2.61
15,YVEVKEGKTCKQICDKHWTAKNSR [W10C],2.17
16,YVEVKEGKTAKQICDKHWTAKNSR [W10A],2.42
17,YVEVKEGKTSKQICDKHWTAKNSR [W10S],2.73
18,YVEVKEGKTEKQICDKHWTAKNSR [W10E],2.99
19,YVEVKEGKTFKQICDKHWTAKNSR [W10F],2.47
20,YVEVKEGKTYKQICDKHWTAKNSR [W10Y],1.93
21,YVEVKEGKTRKQICDKHWTAKNSR [W10R],2.2
22,YVEVKEGKTPKQICDKHWTAKNSR [W10P],2.69
